Source: US20250188176A1 (INVETX, published 2025)
Residue numbers refer to the chain shown, from its start. Several values for one entry are separate records, joined by “and”; a condition that tells them apart may be missing. Equal entries are not always repeated.

How the values were obtained:
[1] = biological target: T1, Extracellular domain (ECD) of the canine IL-4 receptor alpha-AviTag-His Tag (canine); experiment: SPR, IgG captured via anti-dog H+L
T1 construct: expressed in CHO cells; also called canine IL-4RA; canine IL4Ra
T1 chain: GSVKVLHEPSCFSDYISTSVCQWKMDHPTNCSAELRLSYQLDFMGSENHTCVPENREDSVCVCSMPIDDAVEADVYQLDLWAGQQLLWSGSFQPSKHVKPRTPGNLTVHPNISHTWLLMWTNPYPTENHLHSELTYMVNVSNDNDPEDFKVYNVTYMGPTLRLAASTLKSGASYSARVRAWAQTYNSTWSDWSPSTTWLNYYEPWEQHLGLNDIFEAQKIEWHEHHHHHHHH

[2] = biological target: T1, Extracellular domain (ECD) of the …; experiment: SPR, IgG captured via anti-dog H+L
[3] = biological target: canine IL-4RA (construct not given) (canine); experiment: SPR, combinatorial Fab-SASA clone
[4] = biological target: T2, Extracellular domain (ECD) of the canine IL-4 receptor alpha-V5 epitope-AviTag-His Tag (canine); experiment: SPR, Fab-SASA captured on BSA;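 note: biacore T200 SPR, Fab-SASA variants from E. coli conditioned medium captured on BSA-coated CM5 chip, canine IL-4RA injected 120 s then 420 s dissociation, 1:1 model fit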
T2 construct: monomeric form isolated by size exclusion; also called canine IL-4RA-V5-Avi-His; canine IL-4RA
T2 chain: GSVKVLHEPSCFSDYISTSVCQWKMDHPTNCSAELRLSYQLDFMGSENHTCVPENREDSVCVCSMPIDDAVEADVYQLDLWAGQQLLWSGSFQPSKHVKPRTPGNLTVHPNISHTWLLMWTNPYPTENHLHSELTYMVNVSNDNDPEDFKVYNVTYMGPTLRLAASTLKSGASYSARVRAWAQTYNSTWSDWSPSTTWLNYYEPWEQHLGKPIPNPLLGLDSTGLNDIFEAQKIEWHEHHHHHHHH

[5] = biological target: canine IL-4RA on canine DH82 cells (canine); experiment: cell-based or functional assay
[6] = biological target: T1, Extracellular domain (ECD) of the …; experiment: SPR, IgG captured via anti-dog Fc
[7] = biological target: T1, Extracellular domain (ECD) of the …; experiment: SPR, IgG captured via anti-dog Fc
[8] = biological target: T1, Extracellular domain (ECD) of the …; experiment: SPR, IgG captured via anti-dog Fc
[9] = biological target: canine IL-4RA on canine DH82 cells (canine); experiment: cell-based or functional assay; remark: listed apart in the source
[10] = biological target: T2, Extracellular domain (ECD) of the …; experiment: SPR, antibody captured via anti-human Fc

B1: TB640_275 (antibody, V domains shown)
VH: EVQLVESGGDLVKPGGSLRLSCVASGFTFRDYAMDWVRQAPGKGLQWLSLISGSGGKTYYADAVKGRFTISRDNAKNTLYLQMNSLRAEDTAVYYCAVDRLTKTIRPQYYGLWVWGQGTLVTVSS
VL: DIVMTQTPLSLSVSPGETASISCRSSQSLLYSIGYNYLDWYMQKPGQSPQGLIYLGSKRASGVSDRFSGSGSGADFTLKISRVEADDAGVYYCMQGLQSPLTFGQGTKLEIKR
notes: also called TB640_275-H + TB640_275-L
- Kd [1]: 1.71 nM
- koff [1]: 0.000487 s⁻¹
- kon [1]: 287000 M⁻¹ s⁻¹

B2: TB640_057 (antibody, V domains shown)
VH: B1 VH with D35T, L48V, L50T, S52T, K57N, V98K, T102S, K103I, Q108R, W113D
VL: DIVMTQTPLSLSVSPGETASISCRASQSLLYSIGYNYLDWYLQKPGQSPQGLIYLGSKRASGVPDRFSGSGSGTDFTLRISRVEANDTGVYYCMQAIQAPYTFGQGTKLEIKR
notes: caninized IgG
- Kd [2]: 5.54 nM
- koff [2]: 0.00107 s⁻¹
- kon [2]: 194000 M⁻¹ s⁻¹

B3: TB640_109 (antibody, V domains shown)
VH: B1 VH with D35T, L48V, L50T, W113S
VL: B2 VL with I97L, Q98R, A99D
notes: caninized IgG
- Kd [2]: 6.06 nM
- koff [2]: 0.00136 s⁻¹
- kon [2]: 225000 M⁻¹ s⁻¹

B4: TB640_005 Fab-SASA wild type (Fab, V domains shown)
VH: B1 VH with D35T, L48V
VL: B2 VL with A25S, A96G, I97L, A99S, Y101L
notes: secreted from E. coli, tested in conditioned medium; also called WT; not shown: SASA tag then His-tag
- Kd [3]: 6.07 nM
- koff [3]: 0.00116 s⁻¹
- kon [3]: 191000 M⁻¹ s⁻¹
- Kd [4]: 13 nM and 13.3 nM and 13.2 nM
- Ratio WT-kd/clone-kd [4]: 1
- koff [4]: 0.000952 s⁻¹ and 0.000953 s⁻¹
- kon [4]: 73100 M⁻¹ s⁻¹ and 71700 M⁻¹ s⁻¹ and 72400 M⁻¹ s⁻¹

B5: GFmix_PTH-H + GFmix3_KTHS-L (antibody, V domains shown)
VH: B1 VH with T28P, D35T, V114H
VL: B1 VL with Q27K, L30T, Q98H, T102S
- IC50: % inhibition of STAT6 phosphorylation (AlphaLISA pSTAT6) in canine DH82 cells stimulated with 20 ng/mL canine IL-4 [5]: 0.6 nM
- Kd [6]: 0.17 nM
- koff [6]: 7.58e-05 s⁻¹
- kon [6]: 447000 M⁻¹ s⁻¹

B6: 21188-H + FJP10A09-L (antibody, V domains shown)
VH: B1 VH with D35T, V114H
VL: B1 VL with L30T, Q98H, T102S
- Kd [7]: 0.143 nM
- koff [7]: 4.62e-05 s⁻¹
- kon [7]: 324000 M⁻¹ s⁻¹

B7: 21188-H + GFmix2_KTHG-L (antibody, V domains shown)
VH: B1 VH with D35T, V114H
VL: B1 VL with Q27K, L30T, Q98H, T102G
- Kd [7]: 0.168 nM
- koff [7]: 5.92e-05 s⁻¹
- kon [7]: 354000 M⁻¹ s⁻¹

B8: 21188-H + 21188-L (antibody, V domains shown)
VH: B1 VH with D35T, V114H
VL: B1 VL with L30T, T102G
- Kd [7]: 0.18 nM
- koff [7]: 5.96e-05 s⁻¹
- kon [7]: 332000 M⁻¹ s⁻¹
- IC50: % inhibition of STAT6 phosphorylation (AlphaLISA pSTAT6) in canine DH82 cells stimulated with 20 ng/mL canine IL-4 [5]: 2.17 nM
- Kd [8]: 0.4 nM
- koff [8]: 9.85e-05 s⁻¹
- kon [8]: 246000 M⁻¹ s⁻¹
- Kd [6]: 0.243 nM
- koff [6]: 9.93e-05 s⁻¹
- kon [6]: 410000 M⁻¹ s⁻¹

B9: GFmix_PTH-H + GFmix_THS-L (antibody, V domains shown)
VH: B1 VH with T28P, D35T, V114H
VL: B1 VL with L30T, Q98H, T102G
- IC50: % inhibition of STAT6 phosphorylation (AlphaLISA pSTAT6) in canine DH82 cells stimulated with 20 ng/mL canine IL-4 [5]: 1.03 nM
- Kd [6]: 0.171 nM
- koff [6]: 7.78e-05 s⁻¹
- kon [6]: 458000 M⁻¹ s⁻¹
- IC50: % inhibition of STAT6 phosphorylation (AlphaLISA pSTAT6) in canine DH82 cells stimulated with 50 ng/mL canine IL-13 [9]: 0.21 nM

B10: 21188-H + FJP10F04-L (antibody, V domains shown)
VH: B1 VH with D35T, V114H
VL: B1 VL with Q27K, Q98H
- Kd [7]: 0.238 nM
- koff [7]: 6.81e-05 s⁻¹
- kon [7]: 286000 M⁻¹ s⁻¹

B11: 21188-H + GFmix_THS-L (antibody, V domains shown)
VH: B1 VH with D35T, V114H
VL: B1 VL with L30T, Q98H, T102G
- Kd [7]: 0.162 nM
- koff [7]: 5.78e-05 s⁻¹
- kon [7]: 357000 M⁻¹ s⁻¹

B12: 21188-H + GFmix3_KTHS-L (antibody, V domains shown)
VH: B1 VH with D35T, V114H
VL: B1 VL with Q27K, L30T, Q98H, T102S
- Kd [7]: 0.144 nM
- koff [7]: 4.79e-05 s⁻¹
- kon [7]: 333000 M⁻¹ s⁻¹

B13: TB640_005 (antibody, V domains shown)
VH: B1 VH with D35T, L48V
VL: B2 VL with A25S, A96G, I97L, A99S, Y101L
notes: caninized IgG; also called TB640_005-H + TB640_005-L
- Kd [2]: 2.72 nM
- koff [2]: 0.000484 s⁻¹
- kon [2]: 180000 M⁻¹ s⁻¹
- Kd [6]: 2.29 nM
- koff [6]: 0.000486 s⁻¹
- kon [6]: 212000 M⁻¹ s⁻¹

B14: Dupilumab (dupilumab VH with human IgG1 constant region, dupilumab kappa light chain) (antibody, V domains shown)
VH: EVQLVESGGGLEQPGGSLRLSCAGSGFTFRDYAMTWVRQAPGKGLEWVSSISGSGGNTYYADSVKGRFTISRDNSKNTLYLQMNSLRAEDTAVYYCAKDRLSITIRPRYYGLDVWGQGTTVTVSS
VL: DIVMTQSPLSLPVTPGEPASISCRSSQSLLYSIGYNYLDWYLQKSGQSPQLLIYLGSNRASGVPDRFSGSGSGTDFTLKISRVEAEDVGFYYCMQALQTPYTFGQGTKLEIKR
notes: human IgG1 instead of the IgG4 of the drug
- Kd [10]: 130 nM
- koff [10]: 0.143 s⁻¹
- kon [10]: 1.09e+06 M⁻¹ s⁻¹
